In patent publication US12018084B2, “Anti-CXCR2 antibodies and uses thereof” (Cephalon LLC, priority 2018, dated 2024):

System: hCXCR2 knock-in mice
Assay: House dust mite (HDM) severe asthma model in hCXCR2 knock-in mice
Assay type: in vivo, mouse
Details: 10 mg/kg intraperitoneal days 5 and 12, versus vehicle
Excerpt: hCXCR2 knock-in mice were generated by use of homologous recombination in embryonic stem (ES) cells to insert the human CXCR2 into exon 1 of the mouse CXCR2 gene. The single coding exon of human CXCR2 was inserted into a vector with 5′ and 3′ arms homologous to the genomic location of the mouse coding exon of CXCR2, giving rise to a gene structure that coded for human CXCR2 but retained the mouse non-coding and regulatory elements. This vector was electroporated into C57B1/6 mouse ES cells which were incorporated into C57B1/6 mouse blastocysts and transplanted into pseudopregnant female mice. Pups were backcrossed to the parental C57B1/6 strain and offspring screened by southern blot for germline transmission of the human CXCR2 gene. Mice heterozygous for human CXCR2 were intercrossed to give a homozygous human CXCR2 line and phenotype was confirmed by analysis of binding of anti-mouse and anti-human CXCR2 antibodies by flow cytometry.
The anti-CXCR2 antibody BKO-4A8-mIgG1 (SEQ ID NOs: 113 and 114) was generated by formatting the variable heavy and light chains of BKO-4A8 onto an effector function-reduced mouse IgG1 constant region. Female hCXCR2 knock-in mice were subjected to sensitization with 50 μg HDM in complete Freund's adjuvant (CFA) administered by subcutaneous injection on day 0 and intranasal challenge with […] without CFA on day 14. Animals were treated with vehicle or BKO-4A8-mIgG1 (10 mg/kg) via intraperitoneal injection on days 5 and 12. Inflammatory responses were characterized at endpoint on day 16 by total and differential cell counts in bronchoalveolar lavage (BAL) fluid of the right lung. The left lung was fixed in 10% formalin for histopathology and mucus production assessment.
Statistical evaluation was performed using a Mann-Whitney nonparametric unpaired t test with outliers identified using Grubbs' test (Alpha=0.01) to discern statistically significant differences between the vehicle and treatment groups. All statistical analyses were performed using GraphPad Prism™ 7.01.

B1: BKO-4A8-mIgG1: BKO-4A8 variable chains on an effector function-reduced mouse IgG1 constant region (SEQ ID NOs: 113 and 114) (antibody)
heavy: EVQLLESGGGLVQPGGSLRLSCAASGFTFSSSTMSWVRQAPGKGLEWVSAISGRGRNTYYADSVKGRFTISRDNSRNTLYLQMNSLRAEDTAVYYCAIQMGYWGQGILVTVSSAKTTPPSVYPLAPGSAAQTNSMVTLGCLVKGYFPEPVTVTWNSGSLSSGVHTFPAVLQSDLYTLSSSVTVPSSPRPSETVTCNVAHPASSTKVDKKIVPRDCGCKPCICTVPEVSSVFIFPPKPKDVLTITLTPKVTCVVVAISKDDPEVQFSWFVDDVEVHTAQTQPREEQFNSTFRSVSELPIMHQDWLNGKEFKCRVNSAAFPAPIEKTISKTKGRPKAPQVYTIPPPKEQMAKDKVSLTCMITDFFPEDITVEWQWNGQPAENYKNTQPIMNTNGSYFVYSKLNVQKSNWEAGNTFTCSVLHEGLHNHHTEKSLSHSPG
light: QSALTQPPSASGSPGQSVTISCIGTSSDVGGYNYVSWYQQHPDKAPKLMIYEVNKRPSGVPDRFSGSKSGNTASLTVSGLQAEDEADYYCSSYAGNNNFGVFGGGTKLTVLGQPKSSPSVTLFPPSSEELETNKATLVCTITDFYPGVVTVDWKVDGTPVTQGMETTQPSKQSNNKYMASSYLTLTARAWERHSSYSCQVTHEGHTVEKSLSRADCS
modifications: effector function-reduced mouse IgG1 constant region; BKO-4A8-mIgG1 VH; BKO-4A8-mIgG1 VL
p=0.0052
  goblet cell hyperplasia: reduced goblet cell hyperplasia
p=0.017
  reduction in BAL eosinophil counts: > 60%
p=0.028
  reduction in BAL neutrophil counts: > 60%
